# Literature values in PMC11631806.
# Target: Cys32 (UniProt position 32, FSATWCGPCKM)
# Conditions: not stated (reduced dithiol form implied by thiol titration)
substance,measurement,value
"Thioredoxin (cytosolic Trx, Trx1) (Homo sapiens (inferred; the article does not name the species for these values))",pKa,6.3 ± 0.1
